Source: publication PMC6733452

B1: unnamed (parent)
chain 1: MFGLGHNSKEISMSHIGTKFILAEKFTFDPLSNTLIDKEDSEEIIRLGSNESRILWLLAQRPNEVISRNDLHDFVWREQGFEVDDSSLTQAISTLRKMLKDSTKSPQYVKTVPKRGYQLIARVETVEEEMARESEAAHDISQPESVNEYAESSSVPSSATVVNTPQPANVVTNKSAPNLGNRLLILIAVLLPLAVLLLTNPSQTSFKPLTVVDGVAVNMPNNHPDLSNWLPSIELCVKKYNEKHTGGLKPIEVIATGGQNNQLTLNYIHSPEVSGENITLRIVANPNDAIKVCE
chain 2: MGYVRVIYQFPDNLWWNECTNQVYYAQDPMKPERLIGTPSIIQTKLLKILCEYHPAPCPNDQIIKALWPHGFISSESLTQAIKRTRDFLNDEHKTLIENVKLQGYRINIIQVIVSENVVDEADCSQKKSVKERIKIEWGKINVVPYLVFSALYVALLPVIWWSYGQWYQHELAGITHDLRDLARLPGITIQKLSEQKLTFAIDQHQCSVNYEQKTLECTKN

Variants of: B1
Details: with partner chain of the complex shown; parent: 100; read off a plot

Variant	percent of parent (% capture relative to wild-type ToxR)
chain 1 S102A	84
chain 1 K114A	110
chain 1 I120A	90
chain 1 Q107A	92
chain 1 S102A T103A Q107A V112A	63
